{"source": "paper PMC2910045", "about": "(Nucleic Acids Research, 2010)", "key": {"SopB FL [1]": {"target": "T1, SopB FL (Escherichia coli F plasmid, UniProt P62558 1-323)", "T1 sequence": "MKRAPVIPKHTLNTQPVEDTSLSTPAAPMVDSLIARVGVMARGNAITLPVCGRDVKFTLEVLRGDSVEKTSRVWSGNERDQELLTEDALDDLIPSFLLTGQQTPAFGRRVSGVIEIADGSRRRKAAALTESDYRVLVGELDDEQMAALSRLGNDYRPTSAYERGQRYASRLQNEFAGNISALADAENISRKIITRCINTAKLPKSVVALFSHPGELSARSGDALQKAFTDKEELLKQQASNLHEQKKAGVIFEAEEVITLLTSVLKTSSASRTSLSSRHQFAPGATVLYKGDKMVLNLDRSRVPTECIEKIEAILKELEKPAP", "test": "fluorescence polarization"}, "SopB(155-323)": {"target": "T2, SopB(155-323) (Escherichia coli F plasmid, UniProt P62558 155-323)", "T2 sequence": "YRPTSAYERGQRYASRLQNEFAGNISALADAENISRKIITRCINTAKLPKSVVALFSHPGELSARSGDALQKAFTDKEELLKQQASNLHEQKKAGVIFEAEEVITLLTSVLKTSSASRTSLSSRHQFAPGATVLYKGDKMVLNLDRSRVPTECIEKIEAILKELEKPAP", "test": "X-ray crystallography"}, "SopB FL [2]": {"target": "T1, SopB FL", "test": "X-ray crystallography"}, "SEC [3]": {"target": "the molecule itself", "test": "SEC"}, "SEC [4]": {"target": "the molecule itself", "test": "SEC", "remark": "listed apart in the source"}}, "note": "Like-named read-outs stand apart in the source and are kept apart here.", "data": [{"binder": "sopC 43mer (FP) (dsDNA) DNA 1: GGTCTGATTATTAGTCTGGGACCACGGTCCCACTCGTATCGTC DNA 2: GACGATACGAGTGGGACCGTGGTCCCAGACTAATAATCAGACC", "values": [{"measurement": "Kd", "setting": "SopB FL [1]", "result": "324 ± 43", "unit": "nM"}]}, {"binder": "sopC 18mer 5-bromouracil (dsDNA, 5-bromouracil substitutions (positions not given)) DNA 1: CTGGGACCATGGTCCCAG DNA 2: CTGGGACCATGGTCCCAG", "values": [{"measurement": "binding result", "setting": "SopB(155-323)", "result": "binds"}, {"measurement": "binding result", "setting": "SopB FL [2]", "result": "binds"}]}, {"binder": "SopB(155–272) (domain or fragment, F plasmid, UniProt P62558 155-272, looked up) YRPTSAYERGQRYASRLQNEFAGNISALADAENISRKIITRCINTAKLPKSVVALFSHPGELSARSGDALQKAFTDKEELLKQQASNLHEQKKAGVIFEAEEVITLLTSVLKTSSASR", "values": [{"measurement": "stoichiometry N", "setting": "SEC [3]", "result": 2}]}, {"binder": "LSSRHQFAPGATVLYKGDKMVLNLDRSRVPTECIEKIEAILKELEKPAP (domain or fragment, F plasmid, UniProt P62558 275-323, looked up)", "note": "[SopB(275–323)]", "values": [{"measurement": "stoichiometry N", "setting": "SEC [4]", "result": 2}]}, {"binder": "sopC 18mer (FP) (dsDNA) DNA 1: CTGGGACCATGGTCCCAG DNA 2: CTGGGACCATGGTCCCAG", "values": [{"measurement": "Kd", "setting": "SopB FL [1]", "result": "223 ± 44", "unit": "nM"}]}]}
